From patent US20240279318A1 (published 2024)
Read-outs that look alike come from different tables or passages of the source. Values belong to the binder of their own block, whether it stands above or below them.

Experiments:
[1] = target: AFP158 loaded T2 cells (human;, UniProt P61769 21-119); assay: flow cytometry
[2] = target: AFP158/HLA-A*02:01 complex; assay: SPR
[3] = target: AFP158/HLA-A*02:01 complex; assay: SPR; head prints KD(1/s)
[4] = target: A*02:02; assay: SPR
[5] = target: A*02:03; assay: SPR
[6] = target: A*02:05; assay: SPR
[7] = target: A*02:06; assay: SPR
[8] = target: A*02:11; assay: SPR
[9] = target: A*02:07; assay: SPR; low fitting confidence
[10] = target: A*02:07; assay: SPR
[11] = target: A*02:06; assay: SPR; remark: listed apart in the source
[12] = target: A*02:11; assay: SPR; remark: listed apart in the source
[13] = target: A*02:02; assay: SPR; low fitting confidence
[14] = target: A*02:03; assay: SPR; low fitting confidence
[15] = target: A*02:05; assay: SPR; low fitting confidence
[16] = target: AFP158/HLA-A*02:01 complex; assay: SPR; remark: listed apart in the source
[17] = target: A*02:07; assay: SPR; low fitting confidence; remark: listed apart in the source
[18] = target: A*02:11; assay: SPR; low fitting confidence
[19] = target: A*02:03; assay: SPR; remark: listed apart in the source
[20] = target: A*02:02; assay: SPR; low fitting confidence; remark: listed apart in the source
[21] = target: A*02:11; assay: SPR; low fitting confidence; remark: listed apart in the source

B1: AS148691 scFv-mIgG2aFc (Fc fusion)
chain: DIQMTQSPSSLSASVGDRVTITCRASQSVSSAVAWYQQKPGKAPKLLIYSASSLYSGVPSRFSGSRSGTDFTLTISSLQPEDFATYYCQQYYGAYLITFGQGTKVEIKGGGGSGGGGSGGGGSEVQLVESGGGLVQPGGSLRLSCAASGFNLYYSSIHWVRQAPGKGLEWVASIYSSYGSTSYADSVKGRFTISADTSKNTAYLQMNSLRAEDTAVYYCARVGPGYYGIDYWGQGTLVTVSS
EC50 [1]: 413 nM

B7: AS167821 sdAb-mIgG2aFc (Fc fusion)
chain: QVRLVESGGGSVQAGGSLRLSCAASGRTYSTYCMGWFRQAPGKEREGVATIYIGSGRTYYVDSVKGRFTISQDNAKNTLYLQMNNLKPEDTAMYYCTADVDPYESSWSRGLGYWGQGTQVTVSS
EC50 [1]: 3.63 nM

B8: AS170036 VL1VH1-56Y98Q108S (scFv)
scFv: QSALTQPRSVSGSPGQSVTISCAGTSSDVGSENYVSWYQQHPGKAPKLMIYQVNKRASGVPDRFSGSKSGNTASLTISGLQAEDEADYYCASYRSSDQNIVFGGGTKLTVLGGGGSGGGGSGGGGSEVQLVESGGGLVQPGGSLRLSCAASGFTFSSYAMSWVRQAPGKGLEWVSTINSGTYSPYYADSVKGRFTISRDNSKNTLYLQMNSLRAEDTAVYYCAKNFFDGSWFLSPPAMDYWGQGTLVTVSSHHHHHH
Kd [10]: 1.5 µM
Kd [11]: 89 nM
Kd [12]: 290 nM
Kd [13]: > 3100 nM
Kd [14]: < 18 nM
Kd [15]: > 1400 nM
Kd [16]: 7 nM

B9: AS170036 VL1VH1-57K108S (scFv)
scFv: QSALTQPRSVSGSPGQSVTISCAGTSSDVGSENYVSWYQQHPGKAPKLMIYQVNKRASGVPDRFSGSKSGNTASLTISGLQAEDEADYYCASYRSSDHNIVFGGGTKLTVLGGGGSGGGGSGGGGSEVQLVESGGGLVQPGGSLRLSCAASGFTFSSYAMSWVRQAPGKGLEWVSTINSGTGKPYYADSVKGRFTISRDNSKNTLYLQMNSLRAEDTAVYYCAKNFFDGSWFLSPPAMDYWGQGTLVTVSSHHHHHH
Kd [10]: 10 µM
Kd [11]: 500 nM
Kd [12]: 370 nM
Kd [13]: > 1400 nM
Kd [14]: < 10 nM
Kd [16]: 35 nM

B11: AS170036 VL1VH1-57M98Q (scFv)
scFv: QSALTQPRSVSGSPGQSVTISCAGTSSDVGSENYVSWYQQHPGKAPKLMIYQVNKRASGVPDRFSGSKSGNTASLTISGLQAEDEADYYCASYRSSDQNIVFGGGTKLTVLGGGGSGGGGSGGGGSEVQLVESGGGLVQPGGSLRLSCAASGFTFSSYAMSWVRQAPGKGLEWVSTINSGTGMPYYADSVKGRFTISRDNSKNTLYLQMNSLRAEDTAVYYCAKNFFDGSWFLGPPAMDYWGQGTLVTVSSHHHHHH
Kd [11]: 570 nM
Kd [12]: 360 nM
Kd [13]: > 910 nM
Kd [17]: > 19 µM
Kd [14]: > 43000 nM
Kd [15]: > 910 nM
Kd [16]: 46 nM

B12: AS170036 VL1VH1 (scFv)
scFv: QSALTQPRSVSGSPGQSVTISCAGTSSDVGSENYVSWYQQHPGKAPKLMIYQVNKRASGVPDRFSGSKSGNTASLTISGLQAEDEADYYCASYRSSDHNIVFGGGTKLTVLGGGGSGGGGSGGGGSEVQLVESGGGLVQPGGSLRLSCAASGFTFSSYAMSWVRQAPGKGLEWVSTINSGTGSPYYADSVKGRFTISRDNSKNTLYLQMNSLRAEDTAVYYCAKNFFDGSWFLGPPAMDYWGQGTLVTVSSHHHHHH
Kd [11]: 5100 nM
Kd [12]: 220 nM
Kd [13]: > 1500 nM
Kd [17]: > 18 µM
Kd [14]: > 2800 nM
Kd [16]: 710 nM

B13: AS170036 VL1VH1-56N108A (scFv)
scFv: QSALTQPRSVSGSPGQSVTISCAGTSSDVGSENYVSWYQQHPGKAPKLMIYQVNKRASGVPDRFSGSKSGNTASLTISGLQAEDEADYYCASYRSSDHNIVFGGGTKLTVLGGGGSGGGGSGGGGSEVQLVESGGGLVQPGGSLRLSCAASGFTFSSYAMSWVRQAPGKGLEWVSTINSGTNSPYYADSVKGRFTISRDNSKNTLYLQMNSLRAEDTAVYYCAKNFFDGSWFLAPPAMDYWGQGTLVTVSSHHHHHH
Kd [19]: 6.7 µM
Kd [11]: 320 nM
Kd [13]: > 3700 nM
Kd [17]: > 9.1 µM
Kd [15]: > 2000 nM
Kd [18]: > 500 nM
Kd [16]: 27 nM

B14: AS167830 sdAb-mIgG2aFc (Fc fusion)
chain: QVKLVESGGGSVQAGGSLRLSCAASRSSEYMNRRFCMGWFRQASGKEREGVAVVYIGGGRTYYADSVKGRFTISQDNAKNTLYLQMNNLKPEDTAMYYCTADVDPYESSWSRDLGYWGQGTQVTVSS
EC50 [1]: 6.14 nM

B15: AS170036 VL1VH1 (Fc fusion)
chain: QSALTQPRSVSGSPGQSVTISCAGTSSDVGSENYVSWYQQHPGKAPKLMIYQVNKRASGVPDRFSGSKSGNTASLTISGLQAEDEADYYCASYRSSDHNIVFGGGTKLTVLGGGGSGGGGSGGGGSEVQLVESGGGLVQPGGSLRLSCAASGFTFSSYAMSWVRQAPGKGLEWVSTINSGTGSPYYADSVKGRFTISRDNSKNTLYLQMNSLRAEDTAVYYCAKNFFDGSWFLGPPAMDYWGQGTLVTVSS
Kd [7]: 2770 nM
Kd [20]: > 71 µM
Kd [9]: > 1200 nM
Kd [21]: > 14 µM

Further lines, results first:

EC50 [1]: 4.35 nM
Kd [2]: 387 nM
B2: AS170036 scFv-mIgG2aFc (Fc fusion)
chain: QLVLTQPSSVSGTPGQTVTISCAGTSSDVGSENYVSWYRQLPGTAPKLLIYQVNKRASGIADRFSGSKSGNTASMTISGLQSADEADYYCASYRSSDHNIVFGGGTHLTVLGGGGSGGGGSGGGGSAVQLVESGGGLVQPGGSLRLSCTASGFTFSSYAMSWVRQAPGKGLEWVSTINSGTGSPYYADSVKGRFTISRDNAKNTLYLQLNSLKTEDTAMYYCAKNFFDGSWFLGPPAMDYWGKGTLVTISS

EC50 [1]: 3.76 nM
Kd [3]: 100 nM
B3: AS190259 scFv-mIgG2aFc (Fc fusion)
chain: QSVVTQPSAVSVSLEETATITCQGGGYYVNWYQQKPGQAPVLVIYLNTNRPSGIPERFSASKSGGTATLTINGAQAEDEAAYYCQSADSSGNSAVFGGGTHLTVLGGGGSGGGGSGGGGSQVQLVQSGGGLVQPGGSLRLSCAASGFTFSSYAMSWVRQAPGKGLEWVSAINSGGGSTYYADSVKGRFTISRDNAKNTLYLQLNSLKTEDTAMYYCAKAASGYGGSWWGDATLDAWGQGTLVTVSS

EC50 [1]: 1.15 nM
Kd [2]: 39.8 nM
B4: AS179732 scFv-mIgG2aFc (Fc fusion)
chain: NFMLTQPPSMSGSPRQSVTISCTGSSSNIGGNYVNWYQHLPGTAPKLLIYDNSNRASGVPERFSGSKSGSSASLTITGLQAEDEGDYYCASWDDSLSGAVFGGGTHLTVLGGGGSGGGGSGGGGSEVQLVESGGGLVQPGGSLRLSCAASGFTFLNYAMSWVRQAPGKGLEWVSSNSGAGSTYYSDSVKGRFTISRDYAKNVVYLQLNSLKTEDTGMYYCAKGTNVGSWSSLHYWGQGTQVTVSS

EC50 [1]: 1.48 nM
Kd [2]: 80.4 nM
B5: AS179723 scFv-mIgG2aFc (Fc fusion)
chain: QAGLTQPPSMSGSPRQSVTISCTGSSNNIGGNYVNWYQHLPGTAPKLLIYDNKNRPSGVPEQISGSKSGSSASLTITGLQAEDEGDYYCASWDDSLSAVVFGGGTHLTVLGGGGSGGGGSGGGGSEVQLVESGGGLVQPGGSLRLSCAASGFTFLNYAMSWVRQAPGKGLEWVSSNSGAGSTYYSDSVKGRFTISRDYAKNVVYLQLNSLKTEDTGMYYCAKGTNVGSWSSLHYWGQGTQVTVSS

Kd [4]: 19 µM
Kd [5]: 2140 nM
Kd [6]: 26.2 µM
Kd [7]: 191 nM
Kd [8]: 656 nM
Kd [9]: > 770 nM
B6: AS179732 (Fc fusion)
chain: NFMLTQPPSMSGSPRQSVTISCTGSSSNIGGNYVNWYQHLPGTAPKLLIYDNSNRASGVPERFSGSKSGSSASLTITGLQAEDEGDYYCASWDDSLSGAVFGGGTHLTVLGGGGSGGGGSGGGGSEVQLVESGGGLVQPGGSLRLSCAASGFTFLNYAMSWVRQAPGKGLEWVSSNSGAGSTYYSDSVKGRFTISRDYAKNVVYLQLNSLKTEDTGMYYCAKGTNVGSWSSLHYWGQGTQVTVSS

Kd [11]: 330 nM
Kd [13]: > 530 nM
Kd [17]: > 16 µM
Kd [14]: > 31000 nM
Kd [15]: > 1100 nM
Kd [18]: > 250 nM
Kd [16]: 22 nM
B10: AS170036 VL1VH1-98I108A (scFv)
scFv: QSALTQPRSVSGSPGQSVTISCAGTSSDVGSENYVSWYQQHPGKAPKLMIYQVNKRASGVPDRFSGSKSGNTASLTISGLQAEDEADYYCASYRSSDINIVFGGGTKLTVLGGGGSGGGGSGGGGSEVQLVESGGGLVQPGGSLRLSCAASGFTFSSYAMSWVRQAPGKGLEWVSTINSGTGSPYYADSVKGRFTISRDNSKNTLYLQMNSLRAEDTAVYYCAKNFFDGSWFLAPPAMDYWGQGTLVTVSSHHHHHH
